Data reported in PMC4192513 (2014).

B1: Bud13p (residues 201-266) (domain or fragment)
chain: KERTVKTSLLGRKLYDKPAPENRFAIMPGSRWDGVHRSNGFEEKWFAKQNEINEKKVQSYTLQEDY
B2: Bud13p peptide (residues 225-238) (peptide)
peptide: AIMPGSRWDGVHRS
B3: Bud13p peptide (residues 221-242) (peptide)
peptide: ENRFAIMPGSRWDGVHRSNGFE

Legend:
Snu17p (residues 1-113) [1] = biological target: T1, Snu17p (residues 1-113) (S. cerevisiae, UniProt P40565 1-113); assay: ITC; first site (KD1)
T1 chain: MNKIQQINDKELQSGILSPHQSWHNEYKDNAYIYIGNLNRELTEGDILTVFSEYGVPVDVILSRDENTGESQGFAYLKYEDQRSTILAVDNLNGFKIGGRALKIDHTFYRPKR

Snu17p (residues 1-113) [2] = biological target: T1, Snu17p (residues 1-113); assay: ITC; second site (KD2)
Snu17p (residues 1-113) [3] = biological target: T1, Snu17p (residues 1-113); assay: ITC

| Binder | Kd (Snu17p (residues 1-113) [1]) | Kd (Snu17p (residues 1-113) [2]) | Kd (Snu17p (residues 1-113) [3]) |
| --- | --- | --- | --- |
| B1 | 6.3 nM | 234 nM |  |
| B2 |  |  | ~60 µM |
| B3 |  |  | 0.253 µM |
